The data set can be described thus: soluble fraction after stress (log2 fold change); higher = more stays soluble; pooled small domains, quantitative proteomics. The settings on record: stress: 50 degC. In a few lines:
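The measure of aggregation propensity here is the base-two logarithm of the fold change in the soluble amount of each protein after stress. A higher value means more of that protein stays in solution. Stress was applied at 50°C to pooled libraries of small protein domains, read out by high-throughput quantitative proteomics.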
In the case of “HMDYYDTLGVPRNASQSDIKKAYKKQSMQHHPDRTGGDDTKFKDVNEAYQVLSNSEKKQMYDQFGTA”, the “soluble fraction (log2)” value was found to be 0.0532. The figure for “HMDYYNILGVNKAATAQDIKRAYRKLAKEHHPDHGGDATRLQQVNEAYDTLKDPQRREQYDS” is 0.24; for “HMEAADAGTLAQRAAQYFNEKNYAAALDALERRAAMAPETTELRMMRGWSLLHLNRKDEARNAFATLG” it is -0.0562; for “HMEAAIRNALSRVENPDETQRARIYRTAHDALIRNLENRGITDPEQVRPQVSRLKDLISVIEREYHG” it is -0.0521.

On to “HMEAALTLRVDKAGSLRSLLSDEQYAKTSKIIVSGEINTLDIKTLQEMSGEKGSLQSIDLSQANIVAY”, for which the “soluble fraction (log2)” value is -0.00676. The figure for “HMEAFELTPREKQVLQLLVQGKAYKIIAADLDITYDTVRAHIKKIYEKLHVGSMTEAVAKAIQHKL” is -0.882; for “HMEAKKVIAVHIIGEINKPGIVELEEGARVIDAIKKAGGTTEKADLAQINLAYILKDGQKIYIPNTEDN” it is 0.0276. In the case of “HMEALASESVKDKIRKIIDSEDPSRPMSDQRIKEMLKAANIDIARRTVTKYREAMNILSSTKRRQV”, the “soluble fraction (log2)” value was -0.272. The result for “HMEALDPLTAREQEVLEMILSGKSNREIAAELHITENTVKTHAQSIYSKYDVRGRAKLISLLLKGEA” reads -0.102. For “HMEALQKVSINYYDEGAGKQIAEVPLEVGAGDTEIALAVINKYMPAEYNLVSTDYQIRGGYVYVSVTPA”, the “soluble fraction (log2)” value is -0.072. The figure for “HMEAPPHEALSNREFQVLQLLSQGRSVTQIAHQLTLSANTISTYRARIFDKLGLHNPADLYAYAARHGLM” is -0.676.

In the case of “HMEAPWQEIKRQVMDGLDMSREFTDEELRERIALAVRSYSKEKLLSLKVRESYEEQIFNSFR”, the “soluble fraction (log2)” value is -0.239. For the sequence “HMEAQFIDINDVRIGTYVYVDLGWIKHPFALNSFKITSRDQIDTLIKLGVKRIRWSPEKSDS”, the “soluble fraction (log2)” value was -1.3. The figure for “HMEARNDWAQQSRADAEFGGEKLDENLAVAKKAVEALASPELKTLLEQSGLGNHPEIIRLFYRAGRSLS” is 0.132. The figure for “HMEATILTATPEAAGQRLDAFLAETLPELTRSAAQRLIAEGQVAVDGKIPTKSLKLAGGETVSVRLPEPE” is 0.275. With “HMEAVIGGIYRHYKGNNYKLLAVATHSETLEKMAVYQALYGEMGIWVRPLAMFMETIEKDGQSLKRFE”, the “soluble fraction (log2)” value was -1.78. Take “HMEDAWMKKELWDAIATLPKKQRLVMTMRLTNNHSYKEIAAILGISENSAKVSYHHAVERLKEKFK”: the “soluble fraction (log2)” value was -1.33. The figure for “HMEDDPIYEQVMIFLLDKQITSAPELERRFKITHQRAIELLAQMEKTGIVSTMGHAGKRDVLT” is -0.827. As to “HMEDEFNQIASQKNVPSFLGKGKKEVINIAKKNKIKINLSGNGYVKRQIPAPGEVISHLDEVTIFLEPG”, the “soluble fraction (log2)” value is 0.396. With “HMEDEVYFVPSPASRFNPWIAALASRRVPYRVEYDGAERRIAVPAGYAEKAGEELAAYERINHAWPR”, the “soluble fraction (log2)” value was -0.271. For “HMEDFDLSDTERKIIAQIGHGYSNKEIAQKLGFSEGTIRNYLSVILDKLDLRDRTQLAIWYLSR”, the “soluble fraction (log2)” value was -0.143. On to “HMEDIAAIAQRIQGLRDIVGISVEEMAKALDISEQEYREYEKGETDFSFSFLYTVANVLGINITDLI”, for which the “soluble fraction (log2)” value was -0.709. The figure for “HMEDIEEVIVEIDTVLRTHFDRGRTEVLFAEIETAGGRPFMTYLALLFMAHRGSVRLQQDDLFGDLWVKDP” is -0.0374. The figure for “HMEDISLYKILRAHSIDNLKLSQWIIDSLKTKFSTIGELQDAKIDDIRMYRIQDVRIEKIKNAVTEYMA” is -0.926. The result for “HMEDISQHAVKKLVQEMVMAEDPRDPLSDQQIAENLSRLGLKVARRTVAKYRAMLGIQPSNRRRK” reads -0.0553; that for “HMEDIVDLVVEPEAAGRRLDAWLASRIERLSRSRIKALIESGHVAIGGATIVEAKKPVNSGDVVQLSVPEG”, 0.0215; that for “HMEDKQRRMGELVALLNRAAYAYYTKDEPIMADVQYDRLYDELLSLEKETGVQMADSPTHRV”, -0.173. For “HMEDLMEERKEHLLSVMKDPAYVPMKQKELAMLLNVPKGLREELNQVLDALVAEGSVVMSKRGKYTIPQ”, the “soluble fraction (log2)” value was -0.0312. For the sequence “HMEDNLVTYPNPTSDYIYVSKKVDLTVVNMLGDILIQKQNINVLDVTELTPGMYTIVIRYNNVTTNKRIIK”, the “soluble fraction (log2)” value is -0.372. The result for “HMEDPFATLGVHREASLDEIKRAYRRLAMFWHPDRNPEAVAGTEFKRVHAAYELLLDPQRLAEWQQAQAT” reads 0.04. The result for “HMEDPLAAQWKQGRKLFHDDYGYGIISKAFTAGDELVIMVQFENGGEKRFLPKYQAHNLLLVEQ” reads -0.218. On to “HMEDQVITQFNMRLIRAVMPQGAPMIVVYEDPKDYPGLFVARLFDGRKSTHLIALADTLEDI”, for which the “soluble fraction (log2)” value was -0.123. As for “HMEDVDTAALEKVIATAKGLNKNDYTATTWTTMQAALTNAEKALEAKKSQTSVDEAAKTLQAAIDGLKKAS”, the “soluble fraction (log2)” value came out at 0.215. The figure for “HMEDVPYMIKLPSHHYLTKMVDGSTGWSLVQNSNTVVGSSKEELLKQYPEYEDFIVQEPLNV” is 0.101; for “HMEDVSTLAVKQRIDDLVKQENPAKPLSDSDIVARLKTDGIYIARRTVAKYRMELNIPSSSARKRAQQFS” it is -0.833; for “HMEDWTPERFVGAFVSGGPALRDEILLAATKDLSHAQATRLLKLAEARGLVHRSQPGPSERVRFVVARK” it is -0.258. For “HMEDYTPLQELGLKARYIELLEKGGIFSVEDLVQKSVDDLKDIDGIGEKTAKEIWEIVDSMVDF”, the “soluble fraction (log2)” value is -0.137.

“HMEDYYKEDYYTEVLKIPKEYIKGFQYYLIEDAEFVNALNAKNKTMTSFLAKKLASDYIEIIHQEQ”: the “soluble fraction (log2)” value was -1.46. The figure for “HMEEDDGVDFHERLTELNDEQVYYLINTEPAKVIALALDQLGQKRKINIMNRFNPDMKHSIIMELGKL” is -0.516; for “HMEEDGAPLESREVLLDQAISQGKGTQWTIATETKLEDHIVSGAYSTDGKVTLAVFSPLGDGKYEFSSSVN” it is 0.0751. The result for “HMEEDPIIIAQRFLNIFRQLHIFSEEKKESFNKMLLEQPAEIRGALRSLPGGGLLQDYIDDLESKA” reads -0.151. Take “HMEEEEITIHIIGEVKYPGIVILKTGQRIIDAIDAAGGETEEADLNKINLAQLLSDGDKIYVPSINDN”: the “soluble fraction (log2)” value was -0.0785. The figure for “HMEEFAGYINGQPYYGPTHQHRGVKMVGAEHTQRPHPLVWDSVAKSLDNYDNRFQWVNGNLLQVV” is 0.0306. As to “HMEEFGRRLKERMIDKNMTEAELAQKTELWSSILTSYLKGERFPGYYTLLRIAEALDVSIDFLLGLRDEPE”, the “soluble fraction (log2)” value is -1.54. On to “HMEEILLSVKADGTYWVDQKEVTLDEVGALLDKEPDRLLNIFMDEKVPVRHFINVVDIAKVKREGRFII”, for which the “soluble fraction (log2)” value is -0.453. “HMEEIQLILAKNLKSIREKEKLSLEKVSQLTGVSKTMIGQIERGDSSPTLTTIWKIANGLKVSFTSLINNP”: the “soluble fraction (log2)” value was -2.01.

With “HMEEKKYEVGDVVSFNYLYKNSFAEGKVSSLIHSGTITRIIDGRPAPYLINRGTGWLSNDLILT”, the “soluble fraction (log2)” value is -0.958.

In the case of “HMEEKNNIIVSYIEDKISELEKASMYVPNENKEKLIMAFKNRNEDIDVIKTRIDTIFNNSVAAYKENME”, the “soluble fraction (log2)” value amounted to 0.21.

With “HMEEKTMNLPPSAKLVYKILSYEGNLTQKEIINMTYLPERTVRHALELLLGKRLITRQAYLNDARQSVYG”, the “soluble fraction (log2)” value is -1.66. Regarding “HMEEKVEVPNLSGKTYQQAKALLESYGLVAAKGGEEESEEPVGKVSRWSSAGKSVKKGTTITVWISGGI”, the “soluble fraction (log2)” value was -0.0709. As for “HMEEKWKENYEKIKLFISINNRYPSVYSEDKEEGLIGSFMSNQKRRKNKLSKEKMALFEALPNWIWE”, the “soluble fraction (log2)” value was -1.72. For the sequence “HMEELNFYPNPAYKYINLDYVGLKEIYTVLGKKLLETYDTRINISNLNSGIYLIKFKNQALRFVK”, the “soluble fraction (log2)” value is -0.0334. “HMEELVGFEEKVRSILTSPLSAKEIKEKTHIEIDTRKLSKMLSELSFIKTEKKNGKKIFRLVS”: the “soluble fraction (log2)” value is -0.284.

Take “HMEEMADILKTRIDTLDLSTRTLNALTGANIRTVGGIARKKKEDLLELAGMGEKGIQEIKKVLGGFGITL”: the “soluble fraction (log2)” value is -0.0181. As for “HMEEPEYELLRQAVLALPEKYRLPIHLYYYEEYSVREIAEILQRKESAVQTQLQRGREKIRRSLTEKGVS”, the “soluble fraction (log2)” value was -0.77. The result for “HMEEPLIISIDSNGAVYLEVDSFKDQSIEMSSLREIIEKIILANPDIQVVVRGDSEVKYEKVMDLMSILQS” reads -1.29; that for “HMEEQGLPLVIISDGKVLAQNLTLRSLDRAWLQDQLTQHGHSKPEQVFLLTVDERGAVYYVPKE”, -0.37; that for “HMEEQQIQLIQMKMEKDHKYVGKKISELRIKNMLIVLIKRGDEDIIPRAEVKIKEGDILVLSAQSYEG”, -0.00468. The result for “HMEETAFEKLSPLQKLRALGKPLTMINMRDGSQIAGSVQRSDDKFLYLDTGDGIAKLPVEEILRRTPM” reads 0.25. As to “HMEETIVFGQQKAINALSSDAGLSSNELDSYLKKRYKRPLYQLSKSEGAELIQGFQDGSLSKASIMDYVS”, the “soluble fraction (log2)” value stood at 0.169.

As for “HMEEVIEVEGKITAVLPSTMFRAELENGHQVLAHISGKLRKHFIKITVGDIVKMEMSTQDLQKARIV”, the “soluble fraction (log2)” value is -0.307. Consider “HMEEVRFPLKKEILLWALKEAQVDEDEVFRKFTNLEKWINGEKHPTFKQIESLANYLKIPFGYMFLEKPPI”, for which the “soluble fraction (log2)” value turned out to be 0.0399. The result for “HMEEVVIPDLAGLTEEEATKVLMAKELKLKVSGSQHSDIEKGLIISQDPPAGEKGAKNSQVAVVTSSG” reads 0.103; that for “HMEFDFGAILSGNGGSELYSGYSAEQKAALVEAAKADGMDVEFGADGSTTFKDKDGSEVVQKADGTWTV”, 0.18.

With “HMEFDVELTSFEEAKKLKVIKEVKDVTGLSLGEAKDLVMGAPKAIKTGVSKEEAEAIKTQIEAAGAVVTI”, the “soluble fraction (log2)” value amounted to 0.122. Consider “HMEFDYIVKVPDVRNKKIEDAGKILIDLGLKYTTESDYITQDLKVIDQFPLPGTEVSKGSIIDIYLEEDFK”, for which the “soluble fraction (log2)” value is 0.0944.

On to “HMEFEKYKYHYIFDDVLGLRIVWDRGKEHFSYFVNEELAEKSRKSDKDALEVMFYLEHKRWPEEGELENY”, for which the “soluble fraction (log2)” value was -0.687. The figure for “HMEFEYTVVVPETRGKTIGEAGRILLDLELKYTSESMNIREDSKVIDQFPSPGTEVSKGSIIDLYLDE” is 0.0563.

Source of the values: the domain aggregation screens of Martell et al. (2025).
